According to PMC2909587:

Molecular target: taxol-stabilised pig-brain MTs (pig) (UniProt P02550)
Assay: co-sedimentation

CENP-Q (from UniProt Q7L2Z9 1-268) (natural protein)
Kd: 700 nM | stoichiometry N: 6 CENP-Q:MT
